According to the supplement of paper PMC10567573:

B1: DVL3 (parent)
chain: FCADNPSELPPPMERTGGIGDSRP

Variants of: B1
Assay: protein stability index of a GFP-peptide fusion (GPS, HEK-293T) (PSI 1-6); higher = more stable
Settings: c terminus: a fixed tail appended
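Note: lentivirally expressed fusions sorted by FACS into six bins by GFP to DsRed ratio, PSI derived from sequencing read proportions per bin multiplied by bin number.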

Variant	protein stability index
FCADNPSELPPPMERTGGYGDSRP [I19Y]	4.35
FCADNPSELPPPMERTGGQGDSRP [I19Q]	4.65
FCADNPSELPPPMERTGGIGDSRA [P24A]	3.79
FCADNPSELPPPMERTGGIGDSRF [P24F]	3.82
FCADNPSELPPPMERTGGIGDSRH [P24H]	4.66
FCADNPSELPPPMERTGGIGDSRM [P24M]	3.65
FCADNPSELPPPMERTGGIGDSRV [P24V]	4.55
FCADNPSELPPPMERTGGIGDSRC [P24C]	4.39
FCADNPSELPPPMERTGGIGDSRN [P24N]	4.6
FCADNPSELPPPMERTGGIGDSRG [P24G]	4.71
FCADNPSELPPPMERTGGIGDSRL [P24L]	3.96
FCADNPSELPPPMERTGGIGDSRT [P24T]	4.12
FCADNPSELPPPMERTGGIGDSRW [P24W]	3.23
FCADNPSELPPPMERTGGIGDSRS [P24S]	4.73
FCADNPSELPPPMERTGGIGDSRR [P24R]	5.16
FCADNPSELPPPMERTGGIGDSRY [P24Y]	3.6
FCADNPSELPPPMERTGGIGDSRK [P24K]	4.92
FCADNPSELPPPMERTGGIGDSRI [P24I]	4.32
FCADNPSELPPPMERTGGIGDSRD [P24D]	4.86
FCADNPSELPPPMERTGGIGDSRE [P24E]	5.45
FCADNPSELPPPMERTGGIGDSRQ [P24Q]	4.58
FCADNPSELPPPMERTGGIGYSRP [D21Y]	3.92
FCADNPSELPPPMERTGGIGWSRP [D21W]	2.97
FCADNPSELPPPMERTGGIGGSRP [D21G]	4.36

Variant	protein stability index
FCADNPSELPPPMERTGGIGKSRP [D21K]	4.21
FCADNPSELPPPMERTGGIGSSRP [D21S]	4.35
FCADNPSELPPPMERTGGIGASRP [D21A]	4.36
FCADNPSELPPPMERTGGIGTSRP [D21T]	4.52
FCADNPSELPPPMERTGGIGHSRP [D21H]	4.37
FCADNPSELPPPMERTGGIGRSRP [D21R]	3.71
FCADNPSELPPPMERTGGIGESRP [D21E]	5.27
FCADNPSELPPPMERTGGIGQSRP [D21Q]	4.58
FCADNPSELPPPMERTGGIGCSRP [D21C]	3.98
FCADNPSELPPPMERTGGIGISRP [D21I]	3.77
FCADNPSELPPPMERTGGIGPSRP [D21P]	4.16
FCADNPSELPPPMERTGGIGFSRP [D21F]	3.89
FCADNPSELPPPMERTGGIGNSRP [D21N]	4.11
FCADNPSELPPPMERTGGIGLSRP [D21L]	3.48
FCADNPSELPPPMERTGGIGMSRP [D21M]	3.67
FCADNPSELPPPMERTGGIGDSGP [R23G]	4.72
FCADNPSELPPPMERTGGIGDSSP [R23S]	4.75
FCADNPSELPPPMERTGGIGDSQP [R23Q]	4.56
FCADNPSELPPPMERTGGIGDSDP [R23D]	5.18
FCADNPSELPPPMERTGGIGDSNP [R23N]	5.22
FCADNPSELPPPMERTGGIGDSCP [R23C]	4.59
FCADNPSELPPPMERTGGIGDSKP [R23K]	4.94
FCADNPSELPPPMERTGGIGDSFP [R23F]	3.55
FCADNPSELPPPMERTGGIGDSTP [R23T]	5.04

Variant	protein stability index
FCADNPSELPPPMERTGGIGDSMP [R23M]	4.12
FCADNPSELPPPMERTGGIGDSWP [R23W]	2.21
FCADNPSELPPPMERTGGIGDSYP [R23Y]	4.15
FCADNPSELPPPMERTGGIGDSEP [R23E]	4.95
FCADNPSELPPPMERTGGIGDSAP [R23A]	4.89
FCADNPSELPPPMERTGGIGDSVP [R23V]	4.46
FCADNPSELPPPMERTGGIGDSHP [R23H]	5.02
FCADNPSELPPPMERTGGIGDSLP [R23L]	3.74
FCADNPSELPPPMERTGGIGDSIP [R23I]	4.18
FCADNPSELPPPMERTGGIGDMRP [S22M]	4.09
FCADNPSELPPPMERTGGIGDFRP [S22F]	3.28
FCADNPSELPPPMERTGGIGDIRP [S22I]	4
FCADNPSELPPPMERTGGIGDARP [S22A]	4.61
FCADNPSELPPPMERTGGIGDDRP [S22D]	4.88
FCADNPSELPPPMERTGGIGDGRP [S22G]	4
FCADNPSELPPPMERTGGIGDHRP [S22H]	4.34
FCADNPSELPPPMERTGGIGDPRP [S22P]	4.63
FCADNPSELPPPMERTGGIGDWRP [S22W]	3.97
FCADNPSELPPPMERTGGIGDVRP [S22V]	4.15
FCADNPSELPPPMERTGGIGDTRP [S22T]	4.7
FCADNPSELPPPMERTGGIGDCRP [S22C]	3.55
FCADNPSELPPPMERTGGIGDKRP [S22K]	4.77
FCADNPSELPPPMERTGGIGDYRP [S22Y]	4.23
FCADNPSELPPPMERTGGIGDERP [S22E]	5.23

Variant	protein stability index
FCADNPSELPPPMERTGGIGDRRP [S22R]	4.29
FCADNPSELPPPMERTGGIGDQRP [S22Q]	5.11
FCADNPSELPPPMERTGGIGDNRP [S22N]	5.01
FCADNPSELPPPMERTGGIGDLRP [S22L]	4.4
FCADNPSELPPPMERTGGIDDSRP [G20D]	4.51
FCADNPSELPPPMERTGGIKDSRP [G20K]	4.32
FCADNPSELPPPMERTGGIRDSRP [G20R]	3.83
FCADNPSELPPPMERTGGIEDSRP [G20E]	4.53
FCADNPSELPPPMERTGGIHDSRP [G20H]	4.18
FCADNPSELPPPMERTGGIYDSRP [G20Y]	3.45
FCADNPSELPPPMERTGGINDSRP [G20N]	4.54
FCADNPSELPPPMERTGGIVDSRP [G20V]	4.49
FCADNPSELPPPMERTGGITDSRP [G20T]	4.66
FCADNPSELPPPMERTGGICDSRP [G20C]	4.12
FCADNPSELPPPMERTGGILDSRP [G20L]	3.76
FCADNPSELPPPMERTGGIIDSRP [G20I]	4.48
FCADNPSELPPPMERTGGIMDSRP [G20M]	4.18
FCADNPSELPPPMERTGGIQDSRP [G20Q]	4.79
FCADNPSELPPPMERTGGIPDSRP [G20P]	5.08
FCADNPSELPPPMERTGGISDSRP [G20S]	4.4
FCADNPSELPPPMERTGGIFDSRP [G20F]	3.78
FCADNPSELPPPMERTGGIADSRP [G20A]	4.68
